From PMC10438457 (Science Advances, 2023)
Blank lines part the entries; values can stand above or below the binder they belong to.

T1: MBP-UFL1 (UniProt O94874 1-794)
T1 sequence: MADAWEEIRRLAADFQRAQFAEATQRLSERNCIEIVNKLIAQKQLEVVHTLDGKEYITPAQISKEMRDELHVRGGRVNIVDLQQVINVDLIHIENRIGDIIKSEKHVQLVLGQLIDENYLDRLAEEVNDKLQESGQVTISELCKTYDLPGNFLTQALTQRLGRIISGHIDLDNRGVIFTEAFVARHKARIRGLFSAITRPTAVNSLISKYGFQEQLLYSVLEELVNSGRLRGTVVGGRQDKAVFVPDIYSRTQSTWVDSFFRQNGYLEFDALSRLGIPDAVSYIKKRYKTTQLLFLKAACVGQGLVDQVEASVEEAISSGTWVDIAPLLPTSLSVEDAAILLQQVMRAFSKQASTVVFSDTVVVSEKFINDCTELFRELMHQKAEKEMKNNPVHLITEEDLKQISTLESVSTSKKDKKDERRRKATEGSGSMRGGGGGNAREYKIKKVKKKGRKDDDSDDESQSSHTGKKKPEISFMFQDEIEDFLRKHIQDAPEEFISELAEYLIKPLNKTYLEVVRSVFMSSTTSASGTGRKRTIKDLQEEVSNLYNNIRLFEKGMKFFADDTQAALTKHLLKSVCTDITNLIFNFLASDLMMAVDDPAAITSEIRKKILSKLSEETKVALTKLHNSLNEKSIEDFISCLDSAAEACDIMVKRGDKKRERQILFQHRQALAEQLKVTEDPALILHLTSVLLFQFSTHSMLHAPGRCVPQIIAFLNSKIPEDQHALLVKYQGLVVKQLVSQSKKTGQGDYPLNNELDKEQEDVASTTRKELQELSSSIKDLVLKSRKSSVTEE

B1: GST-CDK5RAP3 (natural protein)
chain: MEDHQHVPIDIQTSKLLDWLVDRRHCSLKWQSLVLTIREKINAAIQDMPESEEIAQLLSGSYIHYFHCLRILDLLKGTEASTKNIFGRYSSQRMKDWQEIIALYEKDNTYLVELSSLLVRNVNYEIPSLKKQIAKCQQLQQEYSRKEEECQAGAAEMREQFYHSCKQYGITGENVRGELLALVKDLPSQLAEIGAAAQQSLGEAIDVYQASVGFVCESPTEQVLPMLRFVQKRGNSTVYEWRTGTEPSVVERPHLEELPEQVAEDAIDWGDFGVEAVSEGTDSGISAEAAGIDWGIFPESDSKDPGGDGIDWGDDAVALQITVLEAGTQAPEGVARGPDALTLLEYTETRNQFLDELMELEIFLAQRAVELSEEADVLSVSQFQLAPAILQGQTKEKMVTMVSVLEDLIGKLTSLQLQHLFMILASPRYVDRVTEFLQQKLKQSQLLALKKELMVQKQQEALEEQAALEPKLDLLLEKTKELQKLIEADISKRYSGRPVNLMGTSL
B2: UFC1 (recombinant, GST tag cleaved) (enzyme)
chain: MADEATRRVVSEIPVLKTNAGPRDRELWVQRLKEEYQSLIRYVENNKNADNDWFRLESNKEGTRWFGKCWYIHDLLKYEFDIEFDIPITYPTTAPEIAVPELDGKTAKMYRGGKICLTDHFKPLWARNVPKFGLAHLMALGLGPWLAVEIPDLIQKGVIQHKEKCNQ

Key:
MBP-UFL1 = target: T1, MBP-UFL1; experiment: pull-down
GST-CDK5RAP3 = target: B1; experiment: pull-down
[1] = target: B2; experiment: ITC

Binder: B1
- binding result (MBP-UFL1): binds

Binder: B2
- binding result (GST-CDK5RAP3): binds

- Kd [1]: 410 nM
Binder: MADAWEEIRRLAADFQRAQFA [UFL1 (1-21), UFC1-binding sequence peptide]
